These results are taken from the supplement of paper PMC12855868.

First the molecules themselves.
B1: library; numbered along this chain (parent)
chain: MAAAGGARLLRAASAVLGGPAGRWLHHAGSRAGSSGLLRNRGPGGSAEASRSLSVSARARSSSEDKITVHFINRDGETLTTKGKVGDSLLDVVVENNLDIDGFGACEGTLACSTCHLIFEDHIYEKLDAITDEENDMLDLAYGLTDRSRLGCQICLTKSMDNMTVRVPETVADARQSIDVGKTS

Variants of B1 are the subject of this data set. Description: scaled log2 fold change in cell abundance, elesclomol vs control (0 = silent mean, 1 = nonsense mean) (scaled log2 ratio); higher = higher viability under elesclomol (loss of FDX1 cuproptosis function). The conditions noted are these: glucose 10 mM.
Where [1] appears, read: with ABC1 FDX1 KO, elesclomol 5 nM, 14 days.
[2] abbreviates: with HEK293T FDX1 KO, elesclomol 40 nM, 11 days.
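Also: variant abundance is its share of total variant reads in each endpoint sample, from next-generation sequencing of the integrated ORF PCR-amplified out of genomic DNA.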

Consider MAAAGGARLLRAASAVLGGPAGRWLHHAGSRAGSSGLLRNRGPGGSAEASRSLSVSARARSSSEDKITVHFINRDGETLTTKGKVGDSLLDVVVENNLDIDGFGACEGTLACETCHLIFEDHIYEKLDAITDEENDMLDLAYGLTDRSRLGCQICLTKSMDNMTVRVPETVADARQSIDVGKTS, for which the “scaled log2 fold change” value under setting [1] came to 0.672 and the “scaled log2 fold change” value under setting [2] is -0.214.

Take MAAAGGARLLRAASAVLGGPAGRWLHHAGSRAGSSGLLRNRGPGGSAEASRSLSVSARARSSSEDKITVHFINRDGETLTTKGKVGDSLLDVVVENNLDIDGFGACEGTLACGTCHLIFEDHIYEKLDAITDEENDMLDLAYGLTDRSRLGCQICLTKSMDNMTVRVPETVADARQSIDVGKTS: the “scaled log2 fold change” value runs as follows: under setting [1], 0.021; under setting [2], 0.00491.

For the variant MAAAGGARLLRAASAVLGGPAGRWLHHAGSRAGSSGLLRNRGPGGSAEASRSLSVSARARSSSEDKITVHFINRDGETLTTKGKVGDSLLDVVVENNLDIDGFGACEGTLACHTCHLIFEDHIYEKLDAITDEENDMLDLAYGLTDRSRLGCQICLTKSMDNMTVRVPETVADARQSIDVGKTS, the “scaled log2 fold change” value under setting [1] stood at 0.269 and the “scaled log2 fold change” value under setting [2] is -0.884.

As to MAAAGGARLLRAASAVLGGPAGRWLHHAGSRAGSSGLLRNRGPGGSAEASRSLSVSARARSSSEDKITVHFINRDGETLTTKGKVGDSLLDVVVENNLDIDGFGACEGTLACITCHLIFEDHIYEKLDAITDEENDMLDLAYGLTDRSRLGCQICLTKSMDNMTVRVPETVADARQSIDVGKTS, the “scaled log2 fold change” value is, setting by setting: under setting [1], 0.189; under setting [2], -0.397.

With MAAAGGARLLRAASAVLGGPAGRWLHHAGSRAGSSGLLRNRGPGGSAEASRSLSVSARARSSSEDKITVHFINRDGETLTTKGKVGDSLLDVVVENNLDIDGFGACEGTLACDTCHLIFEDHIYEKLDAITDEENDMLDLAYGLTDRSRLGCQICLTKSMDNMTVRVPETVADARQSIDVGKTS, the “scaled log2 fold change” value under setting [1] is 0.394 and the “scaled log2 fold change” value under setting [2] was determined as 0.644.

For MAAAGGARLLRAASAVLGGPAGRWLHHAGSRAGSSGLLRNRGPGGSAEASRSLSVSARARSSSEDKITVHFINRDGETLTTKGKVGDSLLDVVVENNLDIDGFGACEGTLACKTCHLIFEDHIYEKLDAITDEENDMLDLAYGLTDRSRLGCQICLTKSMDNMTVRVPETVADARQSIDVGKTS, the “scaled log2 fold change” value runs as follows: under setting [1], 0.372; under setting [2], 0.195.

Take MAAAGGARLLRAASAVLGGPAGRWLHHAGSRAGSSGLLRNRGPGGSAEASRSLSVSARARSSSEDKITVHFINRDGETLTTKGKVGDSLLDVVVENNLDIDGFGACEGTLACLTCHLIFEDHIYEKLDAITDEENDMLDLAYGLTDRSRLGCQICLTKSMDNMTVRVPETVADARQSIDVGKTS: the “scaled log2 fold change” value by setting is: under setting [1], 0.0304; under setting [2], 0.215.

Take MAAAGGARLLRAASAVLGGPAGRWLHHAGSRAGSSGLLRNRGPGGSAEASRSLSVSARARSSSEDKITVHFINRDGETLTTKGKVGDSLLDVVVENNLDIDGFGACEGTLACFTCHLIFEDHIYEKLDAITDEENDMLDLAYGLTDRSRLGCQICLTKSMDNMTVRVPETVADARQSIDVGKTS: the “scaled log2 fold change” value reads like this: under setting [1], 0.0249; under setting [2], 0.717.
